The values that follow come from the DeepSol protein solubility set.

The data set in a line: soluble on expression in E. coli; label from the status in PepcDB or PDB records.
In the case of “MSELLSSVSQQLLAPGGLELDSLPGILHELNGPGIDAADLYFQSQVSESWMLEDGIVKEGSFNLDQGVGVRAQSGEKTGFAYSNAITAEALKQAAVAARSISRAGQNGSVQAFKAVVPARLYAGENPLDVLSRAEKVELLKQIDAATRALDPRIQQVTVSMAGVWEQILVAASDGSLAADIRPLVRFNVSVIVEQNGRRERGGHGGGGRTDYRYFLQEDRAMGYAREALRQALVNLEAIPAPAGTLPVVMGAGWSGVLLHEAVGHGLEGDFNRKGSSAYSGRVGEKVASSLCTIVDDGTLAGRRGSLSVDDEGTPSNCNVLIENGVLKGYMQDKLNARLMGVARTGNGRRESYAHLPMPRMTNTYMLAGESDPQEIIASVEKGIYCANLGGGQVDITSGKFVFSTSEAYLIENGRITTPVKGATLIGNGPEAMSRVSMVGNDLALDSGVGTCGKDGQSVPVGVGQPTLKIDAITVGGTGA”, the “soluble on expression in E. coli” value is reported as “not soluble”.

As to “MGSDKIHHHHHHMSFYIYGILTLPAPQNLNLEGLDRQPVQIKILDDFAVIYSEAQQERYLASRRNLLSHEKVLEEIMQAGDRYLLPVQFGLLVSSWETVSQQLIRPHQEELTQLLAKLSGCREVSVKVFWDTEAEIQGLLAEHPNLKTERDKLVGQPLSMERVIQIGQVIEQGMSDRKQGIIDVFKGTLNSIAIEVVENTPQVDTMIYNSAYLIPWEAESQFSEHVESLDRQFENRLRIRYNNFTAPYNFARLRLTTSN”, the “soluble on expression in E. coli” value is given as “not soluble”.

With “MPLMPQPTLMPLLQSPSPQHQHQQQQQHRAIGYPQRTLLPQQKQPQQQQPLAYLTSNFNPQQSSVASFNSSPAFTTISDFDQDFDQDYSNCPSLTASPVSTYSLPAYSSTSQQGSSLSAFDSIPNTTTVPRAAQGAAEPLFNLWADPMQTETWLQPADQLTSKSAGRYGHHRESSLSSLGSAGPASPYSNNTSNPQIAVTDFNDFSGFEDLNYHLVPSKASATLHPSFPGYANSNAVPINGYSRAPAVSKQNNNKSFRQEQSVGSNKPRPAPVASSIMSDSSATPAGEAEVAGRQKNGESQENRDLPDRDQSLPFDDVAINNNAPPKFDRTLTDIMNDELYHPDLVITTSAPAPQQTLTTSNNNFNKVVETANQHLSAMQSPASSNSSPFRQGSPHSATLHDFSSLNMASPQVRLGSAQQMRENSKAVQDAAWQQSLARHNQDMTPKTISPKDALLDYHEPEGESNFPLFPQPDNHGFNSDAMSKALSHQSLDGLPNLGDMSTFNFNFSPSNLDSMPTFNGLQQLPQTLQQYSFVNQPRQPSTVPSLATSRMSSAETGITDSPRSNAVQRPVDTRAEGGTYTCTYHGCPLRFDTPQLLQKHKREGHRQAHGLNSRQPNGMTSTRVDTQAGPHRCERINPSTGKPCNQIFSRPYDLTRHEDTIHNARKKKVRCEICTDEKTFSRADALTRHFRVCHPDVPFNGGKQRKARAGRSG”, the “soluble on expression in E. coli” value is reported as “not soluble”.

In the case of “AGTYNYGEALQKSIMFYEFQRSGDLPADKRDNWRDDSGMKDGSDVGVDLTGGWYDAGDHVKFNLPMSYTSAMLAWSLYEDKDAYDKSGQTKYIMDGIKWANDYFIKCNPTPGVYYYQVGDGGKDHSWWGPAEVMQMERPSFKVDASKPGSAVCASTAASLASAAVVFKSSDPTYAEKCISHAKNLFDMADKAKSDAGYTAASGYYSSSSFYDDLSWAAVWLYLATNDSTYLDKAESYVPNWGKEQQTDIIAYKWGQCWDDVHYGAELLLAKLTNKQLYKDSIEMNLDFWTTGVNGTRVSYTPKGLAWLFQWGSLRHATTQAFLAGVYAEWEGCTPSKVSVYKDFLKSQIDYALGSTGRSFVVGYGVNPPQHPHHRTAHGSWTDQMTSPTYHRHTIYGALVGGPDNADGYTDEINNYVNNEIACDYNAGFTGALAKMYKHSGGDPIPNFKAIEKITNDEVIIKAGLNSTGPNYTEIKAVVYNQTGWPARVTDKISFKYFMDLSEIVAAGIDPLSLVTSSNYSEGKNTKVSGVLPWDVSNNVYYVNVDLTGENIYPGGQSACRREVQFRIAAPQGTTYWNPKNDFSYDGLPTTSTVNTVTNIPVYDNGVKVFGNEP”, the “soluble on expression in E. coli” value is “soluble”.

As for “MGSDKIHHHHHHACGNSDGAGEDPGVPYLAKKGEPVDGVRIGWDYGTIRQLATRGGYPRSIRLQDNTVVAVYENYDTGYEMRCSTDEGSTWGDPVILFPIHSITNDKGTARINIANSEIIQLANGDLLAACNYRPQTPEITPFAIAVRRSTDNGVTWSDPQIIYEAEPRFSDGCWEPSFLQLPNEEVQVYFANEGPYTHSNEQEISMMTSVDNGKTWGGYKTVCFRAGSRDGMPVSKVVGDEIVCVIEDCGFVTFKPYTVRTKLSDNWSSPVLADSPNRAMALGEPVEDWIYMGAPYLGVLPTGETLLSYQVDDIRHDDQLGDRLPYSTMEVAIGDKNARNFVRRTRPFPVPAGKHAVWPSVAVWDANTIAALATSNYQGGTEAPFFMKGHVMRDLEVNSSDIVNYPIFIGHTGICNLRLGVGKDADNLYITCKVKDGELYSGGQGTQKGSGVFIYLDTKNECLKEPAEGVYKVWCSYKGDITVWQGNKGKWENSELEGLQITPSVVSGGYELAFTIPLNRSFNKDAMRLCATLSTKTYTETLVHSNADRSCTWMKMNLGGH”, the “soluble on expression in E. coli” value is given as “not soluble”.

For the sequence “MEKNKSSSPDFSVRDFFKRFPDDEACLEHIFNVRFGARHVCRACGVESTFHRMSDRRAFACAACGDHVYPTAGTIFQDTRTPLQVWFYAIYLFVTTRHGVSGKELQRQLGVTYKTAWRIGHKIREQMDKHDLKAMLQGHVEIDEAYIGGKRPGKRGRGAAGKTIVMGFKQRGGRLVTEIVPDVKLKTLRAETLKTVDAGATVSTDELYSYSLLKGEGYTHVAVKHGAKQWTIYDAETDTMHHTNHVESFWRHFKHSIRGTHVSISQRHMRKYLDEFTFRANHRGEVNLMFDRLVAAFLEHHHHHH”, the “soluble on expression in E. coli” value was “soluble”.

In the case of “MGSDKIHHHHHHENLYFQGMKTIVIEDKQRIESIILQADACFVGITDLEGNPYVVPMNFGYENDTLYLHSGPEGGKIEMLQRNNNVCITFSLGHKLVYQHKQVACSYSMRSESAMCRGKVEFIEDMEEKRHALDIIMRHYTKDQFSYSDPAVRNVKVWKVPVDQMTGKVFGLRADEKP”, the “soluble on expression in E. coli” value was “soluble”.

With “METSDERLAGAAAEGDRGAFALLVERHYDRIFGLSWRLTGSRTEAEDLAQDICAALPMKLRGWRGEARFTTWLYRVVVNASHDLRRRQSAHSRAAAGWGDWELARQDEIGEARAAEEWLAAAMTALPVELRDTVALVLGEEMTQAEAGAVLGLAEGTVAWRMSEVKKRLRAMALREARA”, the “soluble on expression in E. coli” value was “not soluble”.

For the sequence “MGETKADFRDMSRIPKVREGFYATNNQFQKAGPKGFVQVKVLENDNLYVRVDLPGVPDDAVRYRVDAVRQKVVFFSGETLNNGKEGVRQYSGTAGLGCDCCEITGVDAKMKDGVLRMILTRVKVVSKAQDNNNNKCTLTVPPFTGQSGIRLEDHPCLVSGRKGALIGVTKAGGGAHFAVDMPGVSPDDVEVYADEKEIRFKAEIKDVYEHDESGRTYLGSVQSPFPALISNNTIAWDAEFGVLRIAVIPPDDMTTINNKRNPIE”, the “soluble on expression in E. coli” value is given as “soluble”.

On to “MSEFSQTVPELVAWARKNDFSISLPVDRLSFLLAVATLNGERLDGEMSEGELVDAFRHVSDAFEQTSETIGVRANNAINDMVRQRLLNRFTSEQAEGNAIYRLTPLGIGITDYYIRQREFSTLRLSMQLSIVAGELKRAADAAEEGGDEFHWHRNVYAPLKYSVAEIFDSIDLTQRLMDEQQQQVKDDIAQLLNKDWRAAISSCELLLSETSGTLRELQDTLEAAGDKLQANLLRIQDATMTHDDLHFVDRLVFDLQSKLDRIISWGQQSIDLWIGYDRHVHKFIRTAIDMDKNRVFAQRLRQSVQTYFDEPWALTYANADRLLDMRDEEMALRDEEVTGELPEDLEYEEFNEIREQLAAIIEEQLAVYKTRQVPLDLGLVVREYLSQYPRARHFDVARIVIDQAVRLGVAQADFTGLPAKWQPINDYGAKVQAHVIDKY”, for which the “soluble on expression in E. coli” value is recorded as “soluble”.

For “MDLPQEIETNMECPVCGSLLYLLTYDTDIPYEGRISIYTYQCKKCMYRKTEVYQEEEKNPVRITLKIESPEDLKTLVYRSRKADIYIPEIEASIDSAEYANGEITTVEGIIYRIGEKLDLLSYDDEEKEAVKEVRKKIDDIINGYFGSFTLIITDESGKSVIESEKAITEKILEHHHHHH”, the “soluble on expression in E. coli” value is given as “not soluble”.

For “MEFQKKKQKVIQVKEIKFRPGTDEGDYQVKLRSLIRFLEEGDKAKITLRFRGREMAHQQIGMEVLNRVKDDLQELAVVESFPTKIEGRQMIMVLAPKKKQ”, the “soluble on expression in E. coli” value was “soluble”.

For “MNLIFPLFFFALLVGSNAQFQQFCNYCGFIEVPKTWPVAQDSLRSACETLGMATTACKGIINSADLNSSYGKMYPYII”, the “soluble on expression in E. coli” value is “not soluble”.
